The subject of one assay is E13 chick DRG neurons. Kind of assay: AP fusion protein binding to dissociated E13 chick DRG neurons. The text has this: FIG. 1E. Binding of AP fused Amino-Nogo fragments to dissociated E13 chick DRG neurons. Conditioned media from HEK293T cells containing AP fusion protein as indicated were applied to dissociated E13 chick DRG neurons and bound AP was stained.
If these Amino-Nogo fragments are to play a role in regulating neurite outgrowth then they would be expected to bind to neuronal processes. Previously, we have shown that AP-Nogo-66 binds to NgR on DRG processes (Fournier, A. E., et al., Nature 409:341-346 (2001)).

The next assay has as its target T1, AP-Nogo66 (Homo sapiens, UniProt Q9NQC3).
T1 construct: made in house; NgR mutants: COS-7
T1 sequence (Q9NQC3 1055-1120 limits assumed): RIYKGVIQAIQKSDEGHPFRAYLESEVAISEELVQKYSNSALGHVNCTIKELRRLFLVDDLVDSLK
Description: Binding of AP-Nogo66 to COS-7 cells expressing NgR mutants. Set-up: key: ++: WT level; +: weaker than wild type; trace binding; −: no binding. As to conditions: AP-Ng66 5 nM; level of binding compared to wild type NgR. A digest of the protocol:
(§1)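 COS-7 cells expressing Ala-substituted human NgR1 mutants incubated with AP-fused ligands at near-Kd levels (AP-Ng66 5 nM, AP-B4C66 0.5 nM, AP-Lingo-1 10 nM, AP-OMGP 10 nM). Bound AP stained and measured as % of wild-type NgR; graded ++/+/tr/−.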

For a further assay, the target named is T2, AP-B4C (Homo sapiens, UniProt Q9NQC3).
T2 construct: a.a; 950-1018 (AmNg B4C); made in house; host or cells: AP ligand: HEK293T conditioned medium; NgR mutants: COS-7
T2 sequence (Q9NQC3 950-1018): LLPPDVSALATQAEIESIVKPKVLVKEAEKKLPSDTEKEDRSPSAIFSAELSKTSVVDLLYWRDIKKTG
Kind of assay: Binding of AP-B4C to COS-7 cells expressing NgR mutants. As to conditions: AP-B4C 10 nM; level of binding compared to wild type NgR. Also on record: key: ++: WT level; +: weaker than wild type; trace binding; −: no binding.

The target in assay [1] is T3, AP-fused Amino-Nogo fragment B4C (a.a. 950-1018) (human, UniProt Q9NQC3 950-1018).
T3 construct: also called AmNg B4C; AP-B4C; not shown: alkaline phosphatase (AP), vector pcAP6
T3 sequence: T2 sequence (Q9NQC3 950-1018)
Description: AP-ligand binding, COS-7.

The target in another assay is T4, AP-Nogo-66 (UniProt Q9NQC3 1055-1120).
T4 construct: domain: Nogo-66; construct described elsewhere (Fournier 2001); also called AP-Ng66; Ng66; not shown: alkaline phosphatase (AP); construct described elsewhere
T4 sequence (looked up): T1 sequence (Q9NQC3 1055-1120 limits assumed)
Kind of assay: AP-ligand binding, COS-7.

The target of assay [2] is T5, AP fusion protein with the B4C fragment of Amino-Nogo-A fused directly to Nogo-66 (human, UniProt Q9NQC3 1055-1120).
T5 construct: domain: Nogo-66; also called AP-B4C66; AP-B4C-66; not shown: alkaline phosphatase (AP), vector pcAP6
T5 sequence: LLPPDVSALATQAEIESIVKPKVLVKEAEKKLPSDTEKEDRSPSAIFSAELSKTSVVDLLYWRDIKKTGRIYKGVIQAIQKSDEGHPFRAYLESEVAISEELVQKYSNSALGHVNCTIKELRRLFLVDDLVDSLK
Description: AP-ligand binding, COS-7.

Another assay has as its target T6, AP-Lingo-1 (Homo sapiens, UniProt Q96FE5).
T6 construct: made in house; NgR mutants: COS-7
T6 sequence (Q96FE5 40-538 limits assumed): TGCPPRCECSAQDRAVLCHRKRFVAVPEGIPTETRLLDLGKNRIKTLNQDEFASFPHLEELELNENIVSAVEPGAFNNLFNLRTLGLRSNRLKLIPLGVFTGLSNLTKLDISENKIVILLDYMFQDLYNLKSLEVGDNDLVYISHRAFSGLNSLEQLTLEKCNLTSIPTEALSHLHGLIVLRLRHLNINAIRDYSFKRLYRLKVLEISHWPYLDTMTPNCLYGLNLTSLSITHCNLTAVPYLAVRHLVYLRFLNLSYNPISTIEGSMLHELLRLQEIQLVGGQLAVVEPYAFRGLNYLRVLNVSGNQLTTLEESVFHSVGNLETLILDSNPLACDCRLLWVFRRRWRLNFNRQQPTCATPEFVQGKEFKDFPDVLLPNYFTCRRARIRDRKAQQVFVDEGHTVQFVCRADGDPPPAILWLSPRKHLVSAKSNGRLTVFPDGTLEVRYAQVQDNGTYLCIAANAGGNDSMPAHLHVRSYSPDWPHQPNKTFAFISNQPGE
Description: Binding of AP-Lingo-1 to COS-7 cells expressing NgR mutants. Also on record: key: ++: WT level; +: weaker than wild type; trace binding; −: no binding. As to conditions: AP-Lingo-1 10 nM; level of binding compared to wild type NgR. A digest of the protocol:
as §1

The subject of another assay is NgR ligands. Kind of assay: Binding of alanine substituted NgR mutants to NgR ligands, summary categories. The conditions noted are these: AP-Nogo66, AP-B4C, AP-B4C66, AP-Lingo-1, AP-OMgp and AP-MAG; compared to wild type NgR. In short, it runs like this:
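AP-fused ligands (Nogo66, B4C, B4C66, Lingo-1, OMgp, MAG) were assayed against 74 Ala-substitution mutants of human NgR1 targeting surface charged patches, glycosylation sites and predicted binding regions, plus the D259N variant. Outcomes were grouped into categories: binding lost for all ligands, retained for all, or ligand-selective.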

Another assay concerns AP-B4C66. Description: Binding of AP-B4C66 to COS-7 cells expressing NgR mutants. Set-up: key: ++: WT level; +: weaker than wild type; trace binding; −: no binding. The conditions noted are these: AP-B4C66 0.5 nM; level of binding compared to wild type NgR. A digest of the protocol:
as §1

A further assay has as its system AP-MAG. Description: Binding of AP-MAG to COS-7 cells expressing NgR mutants. Also on record: key: ++: WT level; +: weaker than wild type; trace binding; −: no binding. The conditions noted are these: AP-MAG 30 nM; level of binding compared to wild type NgR.
A further assay deals with AP-OMgp. Kind of assay: Binding of AP-OMgp to COS-7 cells expressing NgR mutants. Also on record: key: ++: WT level; +: weaker than wild type; trace binding; −: no binding. As to conditions: AP-OMGP 10 nM; level of binding compared to wild type NgR. In short, it runs like this:
as §1

Another assay addresses T7, NgR (Homo sapiens, UniProt Q9BZR6).
T7 construct: expressed in transfected cells; host or cells: COS-7
T7 sequence (Q9BZR6 27-447): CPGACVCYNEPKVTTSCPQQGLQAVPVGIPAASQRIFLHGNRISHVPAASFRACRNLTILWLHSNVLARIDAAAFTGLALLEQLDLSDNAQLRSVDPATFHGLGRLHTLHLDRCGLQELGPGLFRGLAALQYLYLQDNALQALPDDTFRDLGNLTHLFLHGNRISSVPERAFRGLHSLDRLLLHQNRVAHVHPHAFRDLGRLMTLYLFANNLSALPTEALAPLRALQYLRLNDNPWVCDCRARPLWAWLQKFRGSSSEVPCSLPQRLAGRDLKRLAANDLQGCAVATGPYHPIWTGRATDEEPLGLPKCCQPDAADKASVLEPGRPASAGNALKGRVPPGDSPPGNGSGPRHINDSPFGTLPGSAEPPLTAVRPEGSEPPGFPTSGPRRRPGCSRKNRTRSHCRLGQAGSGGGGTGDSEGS
Description: AP fusion protein binding to NgR expressing COS-7 cells. The conditions noted are these: AP fused Amino-Nogo fragments in conditioned media on NgR expressing COS-7 cells; 'No binding at' cells continue on the next line: AmNg A 150 nM; a.a. 1000-1018, a.a. 1005-1018, Amino of NgC 25 nM; a.a. 950-1004 50 nM; Amino of NgB 100 nM. A digest of the protocol:
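Conditioned media from HEK293T cells transfected with AP-fused human Amino-Nogo-A fragments, collected after 7 days, applied to NgR-expressing COS-7 cells. Bound AP stained and quantified by image analysis; saturable binding used to derive Kd.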

This is an account of results in patent publication US20090111753A1, “Nogo-A Polypeptide Fragments, Variant Nogo Receptor-1 Polypeptides, and Uses Thereof” (Yale University, priority 2004, published 2009).

Positions count from the first letter of the chain named. No end group written: not given here.

Turning to “IFSAELSKTSVVDLLYWRDIKKTG (not fully specified) [a.a. 995-1018 (Amino-Nogo-A-24), AP fusion protein of Nogo-A aa 995-1018]”, the “binding to DRG axons/neurons” value in the assay on E13 chick DRG neurons is reported as “binding to DRG axons”.

B1: human NgR1 alanine mutant 211, 213, 237, 256, 259, 284 (receptor)
chain: CPGACVCYNEPKVTTSCPQQGLQAVPVGIPAASQRIFLHGNRISHVPAASFRACRNLTILWLHSNVLARIDAAAFTGLALLEQLDLSDNAQLRSVDPATFHGLGRLHTLHLDRCGLQELGPGLFRGLAALQYLYLQDNALQALPDDTFRDLGNLTHLFLHGNRISSVPERAFRGLHSLDRLLLHANAVAHVHPHAFRDLGRLMTLYLFANALSALPTEALAPLRALQYLALNANPWVCDCRARPLWAWLQKFRGSSSAVPCSLPQRLAGRDLKRLAANDLQGCAVATGPYHPIWTGRATDEEPLGLPKCCQPDAADKASVLEPGRPASAGNALKGRVPPGDSPPGNGSGPRHINDSPFGTLPGSAEPPLTAVRPEGSEPPGFPTSGPRRRPGCSRKNRTRSHCRLGQAGSGGGGTGDSEGSGALPSLTCSLTPLGLALVLWTVLGPC
As for B1, the Ng66 entry with AP-Nogo66 is recorded as “−”. Also, the B4C entry with AP-B4C was “−”. Further, the binding result (in [1]; in the assay with AP-Nogo-66; in assay [2]) was “no binding” each time. The Lingo-1 entry in the assay with AP-Lingo-1 is reported as “++”. Also, in the assay with NgR ligands, the “ligand binding category of NgR mutant (Table II)” value was “Differential binding”. Besides, in the assay with AP-B4C66, the B4C-66 entry is given as “−”. Moreover, the MAG result in the assay with AP-MAG is recorded as “−”. Moreover, in the assay on AP-OMgp, the OMgp result is “−”.

B2: human NgR1 alanine mutant 189, 191, 211, 213, 237, 256, 259, 284 (receptor)
chain: B1 chain with R163A, S165A
As to B2, the Ng66 result with AP-Nogo66 was “−”. In addition, in the assay with AP-B4C, the B4C result is “−”. The binding result (in assay [1]; with AP-Nogo-66; in assay [2]) was “no binding” each time. In the assay with AP-Lingo-1, the Lingo-1 result is “++”. Besides, the “ligand binding category of NgR mutant (Table II)” value with NgR ligands was “Differential binding”. For the same molecule, the B4C-66 result in the assay with AP-B4C66 is listed as “−”. For the same molecule, the OMgp result in the assay with AP-OMgp is listed as “−”.

B3: a.a. 181-864 (AmNg A): AP fusion protein of human Amino-Nogo fragment A, aa 181-864 of Nogo-A (protein)
chain: SSGSVDETLFALPAASEPVIRSSAENMDLKEQPGNTISAGQEDFPSVLLETAASLPSLSPLSAASFKEHEYLGNLSTVLPTEGTLQENVSEASKEVSEKAKTLLIDRDLTEFSELEYSEMGSSFSVSPKAESAVIVANPREEIIVKNKDEEEKLVSNNILHNQQELPTALTKLVKEDEVVSSEKAKDSFNEKRVAVEAPMREEYADFKPFERVWEVKDSKEDSDMLAAGGKIESNLESKVDKKCFADSLEQTNHEKDSESSNDDTSFPSTPEGIKDRSGAYITCAPFNPAATESIATNIFPLLGDPTSENKTDEKKIEEKKAQIVTEKNTSTKTSNPFLVAAQDSETDYVTTDNLTKVTEEVVANMPEGLTPDLVQEACESELNEVTGTKIAYETKMDLVQTSEVMQESLYPAAQLCPSFEESEATPSPVLPDIVMEAPLNSAVPSAGASVIQPSSSPLEASSVNYESIKHEPENPPPYEEAMSVSLKKVSGIKEEIKEPENINAALQETEAPYISIACDLIKETKLSAEPAPDFSDYSEMAKVEQPVPDHSELVEDSSPDSEPVDLFSDDSIPDVPQKQDETVMLVKESLTETSFESMIEYENKEKLSALPPEGGKPYLESFKLSLDNTKDTLLPDEVSTLSKKEKIPLQMEELSTAVYSNDDLFISKEAQIRETETFSDSSP
modifications: left off: large carriers
notes: AP fusion protein of human Amino-Nogo fragment A, aa 181-864 of Nogo-A
As for B3, in the assay on E13 chick DRG neurons, the “binding to DRG axons/neurons” value is recorded as “binds to DRG axons”. Also, the “NgR Kd (nM)” value in the assay with NgR was “No Binding”.
